# Measurements reported in article PMC9482650, “Quantitative fragmentomics allow affinity mapping of interactomes” (Nature Communications, 2022).
# T1: DLG3_2, Q92796
# T1 sequence (Q92796 221-321, limits assumed, looked up): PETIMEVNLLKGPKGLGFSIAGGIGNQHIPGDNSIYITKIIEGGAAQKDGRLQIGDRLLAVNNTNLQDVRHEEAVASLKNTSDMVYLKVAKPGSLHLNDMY
# T2: SYNJ2BP, P57105
# T2 sequence (P57105 8-110, limits assumed, looked up): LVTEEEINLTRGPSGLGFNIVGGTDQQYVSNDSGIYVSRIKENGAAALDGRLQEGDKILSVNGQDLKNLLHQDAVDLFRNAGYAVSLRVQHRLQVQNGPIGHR
# T3: APBA1_1, Q02410
# T3 sequence (Q02410 651-752, limits assumed, looked up): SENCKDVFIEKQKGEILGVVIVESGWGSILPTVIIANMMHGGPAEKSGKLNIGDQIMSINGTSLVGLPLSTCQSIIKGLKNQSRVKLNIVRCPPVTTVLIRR
# T4: LNX2_2, Q8N448
# T4 sequence (Q8N448 334-432, limits assumed, looked up): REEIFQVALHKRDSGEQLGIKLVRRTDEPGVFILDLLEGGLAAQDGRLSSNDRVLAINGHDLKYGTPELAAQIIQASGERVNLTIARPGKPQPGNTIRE
# T5: APBA1_2, Q02410
# T5 sequence (Q02410 742-832, limits assumed, looked up): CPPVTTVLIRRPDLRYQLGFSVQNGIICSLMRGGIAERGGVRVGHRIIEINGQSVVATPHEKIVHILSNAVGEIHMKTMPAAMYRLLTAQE
# T6: RHPN1, Q8TCX5
# T6 sequence (Q8TCX5 508-602, limits assumed, looked up): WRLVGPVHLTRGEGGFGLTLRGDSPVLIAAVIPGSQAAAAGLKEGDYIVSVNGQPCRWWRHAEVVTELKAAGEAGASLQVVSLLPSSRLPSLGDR
# T7: NHERF3_1, Q5T2W1
# T7 sequence (Q5T2W1 4-100, limits assumed, looked up): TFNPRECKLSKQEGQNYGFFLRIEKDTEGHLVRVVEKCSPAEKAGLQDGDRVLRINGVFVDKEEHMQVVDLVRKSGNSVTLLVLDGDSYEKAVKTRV
# T8: APBA2_1, Q99767
# T8 sequence (Q99767 563-664, limits assumed, looked up): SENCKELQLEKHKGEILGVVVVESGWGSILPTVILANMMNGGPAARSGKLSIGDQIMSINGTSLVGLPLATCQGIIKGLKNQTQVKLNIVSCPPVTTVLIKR
# T9: NHERF3_3, Q5T2W1
# T9 sequence (Q5T2W1 238-333, limits assumed, looked up): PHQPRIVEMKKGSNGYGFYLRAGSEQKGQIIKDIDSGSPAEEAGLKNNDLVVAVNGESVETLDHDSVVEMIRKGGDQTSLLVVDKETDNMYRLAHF
# T10: MPP2, Q14168
# T10 sequence (Q14168 180-250, limits assumed, looked up): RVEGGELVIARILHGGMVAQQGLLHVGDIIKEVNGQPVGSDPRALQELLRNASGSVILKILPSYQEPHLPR
# T11: GRIP1_5, Q9Y3R0
# T11 sequence (Q9Y3R0 568-668, limits assumed, looked up): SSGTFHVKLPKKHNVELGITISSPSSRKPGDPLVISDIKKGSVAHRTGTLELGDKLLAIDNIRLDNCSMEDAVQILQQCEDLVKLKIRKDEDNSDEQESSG
# T12: GRIP1_3, Q9Y3R0
# T12 sequence (Q9Y3R0 247-346, limits assumed, looked up): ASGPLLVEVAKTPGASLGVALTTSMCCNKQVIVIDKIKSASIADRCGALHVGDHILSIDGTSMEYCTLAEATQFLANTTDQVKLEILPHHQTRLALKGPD
# Molecular target: DLG4_2, P78352
# Sequence (P78352 155-259): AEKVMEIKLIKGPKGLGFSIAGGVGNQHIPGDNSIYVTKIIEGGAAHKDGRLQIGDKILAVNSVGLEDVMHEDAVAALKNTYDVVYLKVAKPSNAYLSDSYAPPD
# Assay: holdup assay
# Set-up: key: below the threshold = too weak to quantify, mostly under pKd 3.1 to 4
# Details: plain residues with an end cap or a label only (N-terminal biotin on a linker: ado-ado)
row,Binder,pKd
1,"VCMGDHWFDV [PRKN, O60260]",below the threshold
2,"HYPASPDSWV [CTNND2, Q9UQB3]",4.72

# Molecular target: Inadl_8, Q8NI35
# Sequence (Q8NI35 1425-1530): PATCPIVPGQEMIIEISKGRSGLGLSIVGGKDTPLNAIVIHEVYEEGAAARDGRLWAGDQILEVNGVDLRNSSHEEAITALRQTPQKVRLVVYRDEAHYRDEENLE
# Assay: holdup assay
# Set-up: key: below the threshold = too weak to quantify, mostly under pKd 3.1 to 4
# Details: plain residues with an end cap or a label only (N-terminal biotin on a linker: ado-ado)
row,Binder,pKd
1,"VCMGDHWFDV [PRKN, O60260]",3.66
2,"HYPASPDSWV [CTNND2, Q9UQB3]",4.12

# Molecular target: DLG2_3, Q15700
# Assay: holdup assay
# Set-up: key: below the threshold = too weak to quantify, mostly under pKd 3.1 to 4
# Details: plain residues with an end cap or a label only (N-terminal biotin on a linker: ado-ado)
row,Binder,pKd
1,"VCMGDHWFDV [PRKN, O60260]",below the threshold
2,"HYPASPDSWV [CTNND2, Q9UQB3]",below the threshold

# Molecular target: T1, DLG3_2, Q92796
# Assay: holdup assay
# Set-up: key: below the threshold = too weak to quantify, mostly under pKd 3.1 to 4
# Details: plain residues with an end cap or a label only (N-terminal biotin on a linker: ado-ado)
row,Binder,pKd
1,"VCMGDHWFDV [PRKN, O60260]",below the threshold
2,"HYPASPDSWV [CTNND2, Q9UQB3]",4.3

# Molecular target: PICK1, Q9NRD5
# Sequence (Q9NRD5 17-115): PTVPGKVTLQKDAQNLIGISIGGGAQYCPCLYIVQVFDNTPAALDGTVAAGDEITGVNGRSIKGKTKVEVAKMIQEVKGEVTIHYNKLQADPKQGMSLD
# Assay: holdup assay
# Set-up: key: below the threshold = too weak to quantify, mostly under pKd 3.1 to 4
# Details: plain residues with an end cap or a label only (N-terminal biotin on a linker: ado-ado)
row,Binder,pKd
1,"VCMGDHWFDV [PRKN, O60260]",below the threshold
2,"HYPASPDSWV [CTNND2, Q9UQB3]",4.17

# Molecular target: T2, SYNJ2BP, P57105
# Assay: holdup assay
# Set-up: key: below the threshold = too weak to quantify, mostly under pKd 3.1 to 4
# Details: plain residues with an end cap or a label only (N-terminal biotin on a linker: ado-ado)
row,Binder,pKd
1,"VCMGDHWFDV [PRKN, O60260]",below the threshold
2,"HYPASPDSWV [CTNND2, Q9UQB3]",5.07

# Molecular target: GRID2IP_2, A4D2P6
# Sequence (A4D2P6 272-370): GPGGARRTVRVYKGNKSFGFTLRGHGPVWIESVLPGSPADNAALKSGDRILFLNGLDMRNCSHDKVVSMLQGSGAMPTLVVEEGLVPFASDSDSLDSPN
# Assay: holdup assay
# Set-up: key: below the threshold = too weak to quantify, mostly under pKd 3.1 to 4
# Details: plain residues with an end cap or a label only (N-terminal biotin on a linker: ado-ado)
row,Binder,pKd
1,"VCMGDHWFDV [PRKN, O60260]",below the threshold
2,"HYPASPDSWV [CTNND2, Q9UQB3]",below the threshold

# Molecular target: T3, APBA1_1, Q02410
# Assay: holdup assay
# Set-up: key: below the threshold = too weak to quantify, mostly under pKd 3.1 to 4
# Details: plain residues with an end cap or a label only (N-terminal biotin on a linker: ado-ado)
row,Binder,pKd
1,"VCMGDHWFDV [PRKN, O60260]",below the threshold
2,"HYPASPDSWV [CTNND2, Q9UQB3]",below the threshold

# Molecular target: GRIP2_5, Q9C0E4
# Sequence (Q9C0E4 544-642): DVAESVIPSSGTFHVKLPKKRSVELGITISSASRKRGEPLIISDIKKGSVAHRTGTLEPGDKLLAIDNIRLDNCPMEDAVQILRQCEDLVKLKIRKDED
# Assay: holdup assay
# Set-up: key: below the threshold = too weak to quantify, mostly under pKd 3.1 to 4
# Details: plain residues with an end cap or a label only (N-terminal biotin on a linker: ado-ado)
row,Binder,pKd
1,"VCMGDHWFDV [PRKN, O60260]",below the threshold
2,"HYPASPDSWV [CTNND2, Q9UQB3]",below the threshold

# Molecular target: T4, LNX2_2, Q8N448
# Assay: holdup assay
# Set-up: key: below the threshold = too weak to quantify, mostly under pKd 3.1 to 4
# Details: plain residues with an end cap or a label only (N-terminal biotin on a linker: ado-ado)
row,Binder,pKd
1,"VCMGDHWFDV [PRKN, O60260]",4.57
2,"HYPASPDSWV [CTNND2, Q9UQB3]",4.72

# Molecular target: MAGI1_1, Q96QZ7
# Sequence (Q96QZ7 1-106): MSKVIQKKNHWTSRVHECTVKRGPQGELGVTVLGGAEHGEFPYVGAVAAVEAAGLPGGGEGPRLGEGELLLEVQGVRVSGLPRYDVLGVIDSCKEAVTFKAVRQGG
# Assay: holdup assay
# Set-up: key: below the threshold = too weak to quantify, mostly under pKd 3.1 to 4
# Details: plain residues with an end cap or a label only (N-terminal biotin on a linker: ado-ado)
row,Binder,pKd
1,"VCMGDHWFDV [PRKN, O60260]",below the threshold
2,"HYPASPDSWV [CTNND2, Q9UQB3]",below the threshold

# Molecular target: T5, APBA1_2, Q02410
# Assay: holdup assay
# Set-up: key: below the threshold = too weak to quantify, mostly under pKd 3.1 to 4
# Details: plain residues with an end cap or a label only (N-terminal biotin on a linker: ado-ado)
row,Binder,pKd
1,"VCMGDHWFDV [PRKN, O60260]",3.92
2,"HYPASPDSWV [CTNND2, Q9UQB3]",4.5

# Molecular target: T6, RHPN1, Q8TCX5
# Assay: holdup assay
# Set-up: key: below the threshold = too weak to quantify, mostly under pKd 3.1 to 4
# Details: plain residues with an end cap or a label only (N-terminal biotin on a linker: ado-ado)
row,Binder,pKd
1,"VCMGDHWFDV [PRKN, O60260]",below the threshold
2,"HYPASPDSWV [CTNND2, Q9UQB3]",4.42

# Molecular target: FRMPD3, Q5JV73
# Sequence (Q5JV73 12-100): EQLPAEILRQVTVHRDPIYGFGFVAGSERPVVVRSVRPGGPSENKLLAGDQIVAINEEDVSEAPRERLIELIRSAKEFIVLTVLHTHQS
# Assay: holdup assay
# Set-up: key: below the threshold = too weak to quantify, mostly under pKd 3.1 to 4
# Details: plain residues with an end cap or a label only (N-terminal biotin on a linker: ado-ado)
row,Binder,pKd
1,"VCMGDHWFDV [PRKN, O60260]",4.15
2,"HYPASPDSWV [CTNND2, Q9UQB3]",3.71

# Molecular target: T7, NHERF3_1, Q5T2W1
# Assay: holdup assay
# Set-up: key: below the threshold = too weak to quantify, mostly under pKd 3.1 to 4
# Details: plain residues with an end cap or a label only (N-terminal biotin on a linker: ado-ado)
row,Binder,pKd
1,"VCMGDHWFDV [PRKN, O60260]",below the threshold
2,"HYPASPDSWV [CTNND2, Q9UQB3]",below the threshold

# Molecular target: DLG4_1, P78352
# Sequence (P78352 62-152): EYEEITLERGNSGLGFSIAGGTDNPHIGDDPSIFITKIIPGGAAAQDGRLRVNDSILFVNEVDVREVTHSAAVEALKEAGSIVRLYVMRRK
# Assay: holdup assay
# Set-up: key: below the threshold = too weak to quantify, mostly under pKd 3.1 to 4
# Details: plain residues with an end cap or a label only (N-terminal biotin on a linker: ado-ado)
row,Binder,pKd
1,"VCMGDHWFDV [PRKN, O60260]",below the threshold
2,"HYPASPDSWV [CTNND2, Q9UQB3]",4.37

# Molecular target: T8, APBA2_1, Q99767
# Assay: holdup assay
# Set-up: key: below the threshold = too weak to quantify, mostly under pKd 3.1 to 4
# Details: plain residues with an end cap or a label only (N-terminal biotin on a linker: ado-ado)
row,Binder,pKd
1,"VCMGDHWFDV [PRKN, O60260]",below the threshold
2,"HYPASPDSWV [CTNND2, Q9UQB3]",below the threshold

# Molecular target: IL16_3, Q14005
# Sequence (Q14005 1107-1207): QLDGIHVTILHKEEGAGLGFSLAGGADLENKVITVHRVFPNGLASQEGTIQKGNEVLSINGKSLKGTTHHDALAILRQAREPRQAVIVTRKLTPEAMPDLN
# Assay: holdup assay
# Set-up: key: below the threshold = too weak to quantify, mostly under pKd 3.1 to 4
# Details: plain residues with an end cap or a label only (N-terminal biotin on a linker: ado-ado)
row,Binder,pKd
1,"VCMGDHWFDV [PRKN, O60260]",below the threshold
2,"HYPASPDSWV [CTNND2, Q9UQB3]",below the threshold

# Molecular target: T9, NHERF3_3, Q5T2W1
# Assay: holdup assay
# Set-up: key: below the threshold = too weak to quantify, mostly under pKd 3.1 to 4
# Details: plain residues with an end cap or a label only (N-terminal biotin on a linker: ado-ado)
row,Binder,pKd
1,"VCMGDHWFDV [PRKN, O60260]",below the threshold
2,"HYPASPDSWV [CTNND2, Q9UQB3]",below the threshold

# Molecular target: PDLIM1, O00151
# Sequence (O00151 1-87): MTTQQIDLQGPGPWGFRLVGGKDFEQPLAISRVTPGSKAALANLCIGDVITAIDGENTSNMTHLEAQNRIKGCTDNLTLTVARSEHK
# Assay: holdup assay
# Set-up: key: below the threshold = too weak to quantify, mostly under pKd 3.1 to 4
# Details: plain residues with an end cap or a label only (N-terminal biotin on a linker: ado-ado)
row,Binder,pKd
1,"VCMGDHWFDV [PRKN, O60260]",3.83
2,"HYPASPDSWV [CTNND2, Q9UQB3]",4.06

# Molecular target: NOS1, P29475
# Sequence (P29475 9-101): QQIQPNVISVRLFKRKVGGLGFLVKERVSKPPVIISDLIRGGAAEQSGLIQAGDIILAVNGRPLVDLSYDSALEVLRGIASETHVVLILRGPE
# Assay: holdup assay
# Set-up: key: below the threshold = too weak to quantify, mostly under pKd 3.1 to 4
# Details: plain residues with an end cap or a label only (N-terminal biotin on a linker: ado-ado)
row,Binder,pKd
1,"VCMGDHWFDV [PRKN, O60260]",3.51
2,"HYPASPDSWV [CTNND2, Q9UQB3]",3.86

# Molecular target: GRIP2_4, Q9C0E4
# Sequence (Q9C0E4 446-548): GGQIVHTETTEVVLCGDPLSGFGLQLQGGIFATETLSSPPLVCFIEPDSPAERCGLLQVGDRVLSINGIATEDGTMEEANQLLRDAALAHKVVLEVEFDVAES
# Assay: holdup assay
# Set-up: key: below the threshold = too weak to quantify, mostly under pKd 3.1 to 4
# Details: plain residues with an end cap or a label only (N-terminal biotin on a linker: ado-ado)
row,Binder,pKd
1,"VCMGDHWFDV [PRKN, O60260]",below the threshold
2,"HYPASPDSWV [CTNND2, Q9UQB3]",below the threshold

# Molecular target: HTRA1, Q92743
# Sequence (Q92743 360-477): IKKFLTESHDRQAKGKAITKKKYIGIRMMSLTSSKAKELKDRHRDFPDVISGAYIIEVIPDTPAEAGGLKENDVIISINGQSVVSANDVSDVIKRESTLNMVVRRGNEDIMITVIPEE
# Assay: holdup assay
# Set-up: key: below the threshold = too weak to quantify, mostly under pKd 3.1 to 4
# Details: plain residues with an end cap or a label only (N-terminal biotin on a linker: ado-ado)
row,Binder,pKd
1,"VCMGDHWFDV [PRKN, O60260]",4.96
2,"HYPASPDSWV [CTNND2, Q9UQB3]",4.71

# Molecular target: T10, MPP2, Q14168
# Assay: holdup assay
# Set-up: key: below the threshold = too weak to quantify, mostly under pKd 3.1 to 4
# Details: plain residues with an end cap or a label only (N-terminal biotin on a linker: ado-ado)
row,Binder,pKd
1,"VCMGDHWFDV [PRKN, O60260]",below the threshold
2,"HYPASPDSWV [CTNND2, Q9UQB3]",below the threshold

# Molecular target: T11, GRIP1_5, Q9Y3R0
# Assay: holdup assay
# Set-up: key: below the threshold = too weak to quantify, mostly under pKd 3.1 to 4
# Details: plain residues with an end cap or a label only (N-terminal biotin on a linker: ado-ado)
row,Binder,pKd
1,"VCMGDHWFDV [PRKN, O60260]",below the threshold
2,"HYPASPDSWV [CTNND2, Q9UQB3]",below the threshold

# Molecular target: T12, GRIP1_3, Q9Y3R0
# Assay: holdup assay
# Set-up: key: below the threshold = too weak to quantify, mostly under pKd 3.1 to 4
# Details: plain residues with an end cap or a label only (N-terminal biotin on a linker: ado-ado)
row,Binder,pKd
1,"VCMGDHWFDV [PRKN, O60260]",below the threshold
2,"HYPASPDSWV [CTNND2, Q9UQB3]",below the threshold
